Results on three molecules are retold here after patent publication US20180105596A1 (ELSALYS BIOTECH, published 2018).

Residue numbers refer to the chain shown, from its start.

One experiment concerns the target T1, hTyro 3-ECD.
T1 construct: not the His-Strep tagged ECD m13; also called Recombinant Human Dtk-Fc Chimera (R&D Systems 859-DK-100); not shown: Human Fc, and any linker, of the commercial chimera (R&D Systems 859-DK-100)
T1 chain: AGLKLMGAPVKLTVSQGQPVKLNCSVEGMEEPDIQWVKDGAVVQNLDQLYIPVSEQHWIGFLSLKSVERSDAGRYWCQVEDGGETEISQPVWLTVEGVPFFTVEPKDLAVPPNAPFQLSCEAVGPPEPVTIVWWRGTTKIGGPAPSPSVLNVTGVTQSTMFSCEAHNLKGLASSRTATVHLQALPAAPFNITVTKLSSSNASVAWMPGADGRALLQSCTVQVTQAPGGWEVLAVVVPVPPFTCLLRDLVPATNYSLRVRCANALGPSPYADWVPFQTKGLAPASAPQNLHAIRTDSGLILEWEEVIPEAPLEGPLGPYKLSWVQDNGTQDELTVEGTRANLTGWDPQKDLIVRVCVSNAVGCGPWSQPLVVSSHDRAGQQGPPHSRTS
The experiment can be described thus: ELISA, ECD coated 1 µg/well, scFv 1 µg/mL, anti-tag-HRP. As for the experimental part: (§1) Extracellular domains of hTyro 3 (859-DK-100), hAxl (154-AL-100) or hMer (891-MR-100) from R&D Systems were coated onto 96-wells microtiter plates (1 μg/well) in PBS and incubated overnight at 4° C. Plates were washed three times with PBS and blocked in PBS/3% BSA for 1 hour at RT. Plates were washed as above and scFvs were added at 1 μg/mL (diluted in PBS) and incubated for 1 hour at RT. Plates were washed three times with PBST (PBS/0.01% Tween-20) and secondary antibody anti-FLAG-HRP was added (Abcam, ab49763, 1/5000 dilution in blocking buffer) for 1 hour at RT. Plates were washed as above with PBST and signal was developed with Ultra-TMB reagent (Thermo Scientific, 34028).
(An ELISA detects its analyte on a solid surface through an enzyme-linked reagent.)

Experiment [1] has as its target T2, extracellular domain of human Axl, Fc fusion (R&D Systems 154-AL-100) (human, UniProt P30530 26-451).
T2 construct: Bought protein; also called hAxl; hAXL; not shown: Fc of the bought ECD-Fc fusion
T2 sequence: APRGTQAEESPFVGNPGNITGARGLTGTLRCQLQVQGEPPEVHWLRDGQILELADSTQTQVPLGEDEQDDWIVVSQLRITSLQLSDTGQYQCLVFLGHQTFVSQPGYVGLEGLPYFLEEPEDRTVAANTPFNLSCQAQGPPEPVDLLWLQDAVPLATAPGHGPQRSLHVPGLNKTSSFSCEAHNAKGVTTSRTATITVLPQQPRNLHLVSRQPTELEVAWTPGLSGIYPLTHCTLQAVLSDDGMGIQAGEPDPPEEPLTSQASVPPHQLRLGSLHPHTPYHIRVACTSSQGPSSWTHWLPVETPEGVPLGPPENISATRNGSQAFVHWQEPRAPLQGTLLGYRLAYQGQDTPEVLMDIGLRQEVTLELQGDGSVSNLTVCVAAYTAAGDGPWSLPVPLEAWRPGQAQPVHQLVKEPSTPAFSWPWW
Described as above. As for the experimental part: as §1

Experiment [2] concerns the target T3, extracellular domain of human Mer, Fc fusion (R&D Systems 891-MR-100) (human, UniProt Q12866 21-505).
T3 construct: Bought protein; also called hMer; hMER; not shown: Fc of the bought ECD-Fc fusion
T3 sequence: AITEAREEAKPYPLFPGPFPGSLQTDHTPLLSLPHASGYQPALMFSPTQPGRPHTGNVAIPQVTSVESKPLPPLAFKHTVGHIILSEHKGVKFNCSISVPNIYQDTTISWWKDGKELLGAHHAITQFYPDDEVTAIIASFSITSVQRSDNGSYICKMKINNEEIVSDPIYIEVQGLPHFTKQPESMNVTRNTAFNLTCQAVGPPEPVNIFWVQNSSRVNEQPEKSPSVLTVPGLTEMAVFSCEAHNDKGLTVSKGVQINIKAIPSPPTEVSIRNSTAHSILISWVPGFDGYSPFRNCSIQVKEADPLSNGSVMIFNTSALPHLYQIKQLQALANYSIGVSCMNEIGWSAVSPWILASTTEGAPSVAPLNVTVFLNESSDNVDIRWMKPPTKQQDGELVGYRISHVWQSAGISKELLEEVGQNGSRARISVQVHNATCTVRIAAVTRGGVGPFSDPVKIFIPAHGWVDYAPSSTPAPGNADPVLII
Described as above. On the procedure: as §1

In a further experiment the target is T4, Tyro3 ECD Ig2-FNIII 1.
T4 construct: also called Ig2 + FNIII 1 fragment of hTyro3 ECD, His-Strep tagged
T4 fragment: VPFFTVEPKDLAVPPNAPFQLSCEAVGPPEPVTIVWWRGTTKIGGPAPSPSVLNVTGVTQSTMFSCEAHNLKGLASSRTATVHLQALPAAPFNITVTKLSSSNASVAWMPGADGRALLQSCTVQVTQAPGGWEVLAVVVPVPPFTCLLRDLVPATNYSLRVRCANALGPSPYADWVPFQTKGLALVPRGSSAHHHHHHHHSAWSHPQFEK
In words: sandwich ELISA, Strep-tagged fragment captured on StrepMAB plate, scFv 10 µg/mL (Table 17), anti-FLAG-HRP.

Experiment [3] concerns the target T5, Tyro3 ECD FNIII 1-FNIII-2.
T5 construct: also called FNIII 1 + FNIII 2 fragment of hTyro3 ECD, His-Strep tagged
T5 fragment: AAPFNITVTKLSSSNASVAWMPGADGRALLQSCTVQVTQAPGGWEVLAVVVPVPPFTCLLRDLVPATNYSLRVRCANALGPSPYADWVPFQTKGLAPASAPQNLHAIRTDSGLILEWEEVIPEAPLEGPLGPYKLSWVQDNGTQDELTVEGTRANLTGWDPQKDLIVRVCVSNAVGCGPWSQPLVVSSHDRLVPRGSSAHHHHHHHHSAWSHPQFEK
Described as above.

Experiment [4] deals with T6, Ig-1 domain fragment of human Tyro3 ECD, His-Strep tagged (human).
T6 chain: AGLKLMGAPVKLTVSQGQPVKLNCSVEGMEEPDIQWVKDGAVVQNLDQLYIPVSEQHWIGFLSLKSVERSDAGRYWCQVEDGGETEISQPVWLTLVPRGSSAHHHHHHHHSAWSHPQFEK
Described as above.

Experiment [5] concerns the target T7, Ig-1 and Ig-2 domains fragment of human Tyro3 ECD, His-Strep tagged (human).
T7 construct: also called Ig1-Ig2 fragment
T7 chain: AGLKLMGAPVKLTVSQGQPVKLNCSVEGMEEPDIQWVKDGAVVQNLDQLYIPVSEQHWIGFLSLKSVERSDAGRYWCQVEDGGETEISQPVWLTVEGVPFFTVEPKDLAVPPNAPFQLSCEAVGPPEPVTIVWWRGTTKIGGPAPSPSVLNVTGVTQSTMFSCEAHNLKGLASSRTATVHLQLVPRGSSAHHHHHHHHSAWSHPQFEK
The description is as above.

B1: anti-Tyro3 scFv 2413 (scFv, V domains shown)
VH: EVQLVQSGADVKKPGASLTISCQASGYTFTDYWISWVRQKPGKGLEWMGRIHTYQSSTRYGPSFQGHVTISADRSTATAYLQWRSLEASDTAMYYCVRHHSTTTANPYSSWGPGTLVTVSS
VL: SYELTQPPSVSVSPGQTARITCSGDALPKKYAYWYQQKSGQAPVLVIYEDDKRLSGIPERFSGSSSGTMATLTISGAQVEDEADYYCYSTEINGNYAVFGGGTKLTVL
notes: Tested as a single-chain Fv made in E. coli
Consider B1, for which the binding result in the experiment with hTyro 3-ECD is on record as “binds”; in experiment [1], “no binding (tested: 1 µg/mL)”; in experiment [2] it was “no binding (tested: 1 µg/mL)”; with Tyro3 ECD Ig2-FNIII 1, “binds”; in experiment [3], “no binding (tested: 10 µg/mL)”; in experiment [4] it was “binds”. In addition, the binding result in experiment [5] was “binds”.

B2: anti-Tyro3 scFv 2718 (scFv, V domains shown)
VH: EVQLVQSGADVKKPGASLTISCQASGYTFTDYWISWVRQKPGKGLEWMGHINPMRSTTTYGPSFQGHVTISADRSTATAYLQWHSLEASDTAMYYCVRNDNHDDYTYTDDWGPGTLVTVSS
VL: B1 VL with D51T, L54H, T90A, I92H, N93R
notes: as for B1
On to B2, for which the binding result in the experiment with hTyro 3-ECD was “binds”; in experiment [1], “no binding (tested: 1 µg/mL)”; in experiment [2], “no binding (tested: 1 µg/mL)”; in the experiment with Tyro3 ECD Ig2-FNIII 1, “binds”; in experiment [3], “binds”; in experiment [4], “no binding (tested: 10 µg/mL)”. In addition, the binding result in experiment [5] is given as “no binding (tested: 10 µg/mL)”.

B3: anti-Tyro3 scFv 2411 (scFv, V domains shown)
VH: EVQLVQSGADVKKPGASLTISCQASGYTFTDYWISWVRQKPGKGLEWMGSITRSSSRTHYGPSFQGHVTISADRSTATAYLQWRSLEASDTAMYYCVRGYTHLRTWGPGTLVTVSS
VL: B1 VL with D51S, L54S, T90A, E91N, I92Q, N93R, A97M
notes: as for B1
Consider B3, for which the binding result in the experiment with hTyro 3-ECD was “binds”; in experiment [1], “no binding (tested: 1 µg/mL)”; in experiment [2] it was “no binding (tested: 1 µg/mL)”; with Tyro3 ECD Ig2-FNIII 1, “binds”; in experiment [3], “no binding (tested: 10 µg/mL)”; in experiment [4], “binds”. Further, the binding result in experiment [5] was “binds”.
